The target in assay [1] is T1, MAdCAM (analyte of the BIAcore experiment) (UniProt Q13477 19-317).
T1 construct: The antibodies are called anti-hMAdCAM; also called Mucosal addressin cell adhesion molecule
T1 sequence (looked up): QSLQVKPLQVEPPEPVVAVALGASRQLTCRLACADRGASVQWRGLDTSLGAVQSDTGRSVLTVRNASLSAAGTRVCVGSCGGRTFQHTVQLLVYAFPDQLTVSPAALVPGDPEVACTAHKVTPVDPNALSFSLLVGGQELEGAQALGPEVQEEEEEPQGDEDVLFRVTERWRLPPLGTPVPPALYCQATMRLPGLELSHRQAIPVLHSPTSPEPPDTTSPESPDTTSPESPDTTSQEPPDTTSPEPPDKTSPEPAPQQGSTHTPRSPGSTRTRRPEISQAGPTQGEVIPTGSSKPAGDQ
Kind of assay: BIAcore (SPR); antibody immobilised, MAdCAM injected.

The target in assay [2] is T2, MAdCAM-IgG1 Fc fusion protein.
T2 construct: Made in CHO-DHFR cells and coated on plates at 4.5 µg/mL
Kind of assay: inhibition of adhesion of calcein-loaded JY cells to plate-coated MAdCAM-IgG1 Fc fusion (fluorescence). Here is the method: The cells were washed twice with RPMI 1640 media (Gibco) containing 2 mM L-glutamine (Gibco) by centrifugation (240 g), resuspending the final cell pellet at 2×10⁶ cells/mL in RPMI 1640 for Calcein AM loading. Calcein AM (Molecular Probes #C-3099) was added to the cells as a 1:200 dilution in DMSO (ca. final concentration 5 μM) and the cells protected from light during the course of the incubation (37° C. for 30 min). During this cell incubation step the antibodies to be tested, were diluted as follows: for single dose testing, the antibodies were made up to 3 μg/mL (1 μg/mL final) in 0.1 mg/mL BSA (Sigma#A3059) in PBS; for full IC₅₀ curves, the antibodies were diluted in 0.1 mg/mL BSA/PBS, with 3 μg/mL (1 μg/mL final) being the top concentration, then doubling dilutions (1:2 ratio) across the plate. The final well of the row was used for determining total binding, so 0.1 mg/ml BSA in PBS was used.
After blocking, the plate contents were flicked out and 50 μL of antibodies/controls were added to each well and the plate incubated at 37° C. for 20 min. During this time, Calcein-loaded JY cells were washed once with RPMI 1640 media containing 10% fetal bovine serum and once with 1 mg/mL BSA/PBS by centrifugation, resuspending the final cell pellet to 1×10⁶/mL in 1 mg/mL BSA/PBS. 100 μL of cells were added to each well of the U bottomed plate, the plate sealed, briefly centrifuged (1000 rpm for 2 min) and the plate then incubated at 37° C. for 45 min. At the end of this time, the plates were washed with a Skatron plate washer and fluorescence measured using a Wallac Victor² 1420 Multilabel Reader (excitation λ485 nm, emission λ535 nm count from top, 8 mm from bottom of plate, for 0.1 sec with normal emission aperture). For each antibody concentration, percent adhesion was expressed as a percentage of maximal fluorescence response in the absence of any antibody minus fluorescence associated with non-specific binding. The IC₅₀ value is defined as the anti-MAdCAM antibody concentration at which the adhesion response is decreased to 50% of the response in the absence of anti-MAdCAM antibody. Antibodies that were able to inhibit the binding of JY cells to MAdCAM-IgG₁ Fc fusion with an IC₅₀ value <0.1 μg/mL, were considered to have potent antagonist activity and were progressed to the MAdCAM-CHO adhesion assay.

For assay [3], the target named is T1, MAdCAM (analyte of the BIAcore …). Kind of assay: BIAcore (SPR); antibody immobilised, MAdCAM injected; footnote: below the instrument's lower limit of 5 × 10^-6 s^-1. On the technique in general: SPR reads the build-up and loss of mass on a sensor chip optically.
For assay [4] the target is unchanged. The assay can be described thus: BIAcore (SPR); KD restated from the instrument's off-rate limit; the footnote says 7.16.6_V, but the ka used and the asterisk belong to 7.16.6_S; KD bound restated from the BIAcore off-rate limit (5 × 10^-6 s^-1), not the fitted 23.2 pM.
For assay [5], the target named is T2, MAdCAM-IgG1 Fc fusion protein. Kind of assay: MAdCAM-IgG1 Fc fusion: JY cell binding assay (inhibition of JY cell adhesion).

Where only a bound is given, the exact number is not on record here.

B1: 7.16.6_L (antibody, V domains shown)
VH: QVQLVQSGAEVKKPGASVKVSCKASGYTFTSYGINWVRQAPGQGLEWMGWISVYSGNTNYAQKLQGRVTMTADTSTSTAYMDLRSLRSDDTAVYYCAREGSSSSGDYYYGMDVWGQGTTVTVSS
VL: DIVMTQTPLSLSVTPGQPASISCKSSQSLLHTDGTTYLYWYLQKPGQPPQLLIYEVSNRFSGVPDRFSGSGSGTDFTLKISRVEAEDVGIYYCMQNIQLPWTFGQGTKVEIKR
notes: The light chain is the parent 7.16.6 kappa chain, rebuilt as for m1; also called 7.16.6_L variant
As a reminder, the Kd is a measure of binding affinity in units of concentration. A high value points to a looser complex. For orientation: koff means a measure of how fast the partners let go of each other. A word on the kon: it is the rate constant with which the complex forms. A higher kon goes with faster complex formation. As usually defined, the IC50 is the concentration that gives 50% inhibition. In assay [1], B1 came in with a Kd of 79.5 pM, a koff of 1.21e-05 s⁻¹ and a kon of 152000 M⁻¹ s⁻¹. Moreover, in assay [2], the concentration for half-maximal inhibition (IC50) is 0.0356 µg/mL.

B2: 7.16.6_LVS (antibody, human IgG2, kappa, V domains shown)
VH: QVQLVQSGAEVKKPGASVKVSCKASGYTFTSYGINWVRQAPGQGLEWMGWISVYSGNTNYAQKLQGRVTMTADTSTSTAYMDLRSLRSDDTAVYYCAREGSSSSGDYYYGMDVWGQGTTVTVSS
VL: DIVMTQTPLSLSVTPGQPASISCKSSQSLLHTDGTTYLYWYLQKPGQPPQLLIYEVSNRFSGVPDRFSGSGSGTDFTLKISRVEAEDVGVYYCMQSIQLPWTFGQGTKVEIKR
notes: Recombinant, from transiently transfected FreeStyle HEK293 cells
In assay [1], B2 displayed a Kd of 119 pM, a koff of 2.31e-05 s⁻¹ and a kon of 194000 M⁻¹ s⁻¹. Besides, in assay [2], the IC50 is 0.0458 µg/mL.

B3: 7.16.6_S (antibody, human IgG2, kappa, V domains shown)
VH: QVQLVQSGAEVKKPGASVKVSCKASGYTFTSYGINWVRQAPGQGLEWMGWISVYSGNTNYAQKVQGRVTMTADTSTSTAYMDLRSLRSDDTAVYYCAREGSSSSGDYYYGMDVWGQGTTVTVSS
VL: DIVMTQTPLSLSVTPGQPASISCKSSQSLLHTDGTTYLYWYLQKPGQPPQLLIYEVSNRFSGVPDRFSGSGSGTDFTLKISRVEAEDVGIYYCMQSIQLPWTFGQGTKVEIKR
notes: Recombinant, from transiently transfected FreeStyle HEK293 cells; also called 7.16.6-5; 7.16.6_5
B3: in assay [1], binding was put at a Kd of 23.2 pM and the kon is 183000 M⁻¹ s⁻¹. Moreover, the IC50 in assay [2] is 0.0342 µg/mL. This molecule also came in with a koff in assay [3] of 4.27e-06 s⁻¹. The molecule further returned a Kd in assay [4] of less than 27.3 pM.

B4: 7.16.6_V (antibody, human IgG2, kappa, V domains shown)
VH: QVQLVQSGAEVKKPGASVKVSCKASGYTFTSYGINWVRQAPGQGLEWMGWISVYSGNTNYAQKVQGRVTMTADTSTSTAYMDLRSLRSDDTAVYYCAREGSSSSGDYYYGMDVWGQGTTVTVSS
VL: DIVMTQTPLSLSVTPGQPASISCKSSQSLLHTDGTTYLYWYLQKPGQPPQLLIYEVSNRFSGVPDRFSGSGSGTDFTLKISRVEAEDVGVYYCMQNIQLPWTFGQGTKVEIKR
notes: Recombinant, from transiently transfected FreeStyle HEK293 cells; also called 7.16.6_V adduct
Regarding B4, in assay [1], the Kd amounted to 162 pM, the koff turned out to be 2.49e-05 s⁻¹ and the kon was found to be 153000 M⁻¹ s⁻¹. Besides, the IC50 in assay [2] is 0.0412 µg/mL.

B5: 7.16.6_VS (antibody, human IgG2, kappa, V domains shown)
VH: QVQLVQSGAEVKKPGASVKVSCKASGYTFTSYGINWVRQAPGQGLEWMGWISVYSGNTNYAQKVQGRVTMTADTSTSTAYMDLRSLRSDDTAVYYCAREGSSSSGDYYYGMDVWGQGTTVTVSS
VL: DIVMTQTPLSLSVTPGQPASISCKSSQSLLHTDGTTYLYWYLQKPGQPPQLLIYEVSNRFSGVPDRFSGSGSGTDFTLKISRVEAEDVGVYYCMQSIQLPWTFGQGTKVEIKR
notes: Recombinant, from transiently transfected FreeStyle HEK293 cells; also called 7.16.6_VS adduct
With B5, in assay [1], binding was characterised by a dissociation constant (Kd) of 90.8 pM, the dissociation rate constant (koff) is 2.18e-05 s⁻¹ and the on-rate (kon) is 240000 M⁻¹ s⁻¹. Further, the IC50 in assay [2] is 0.0582 µg/mL.

B6: 6.77.1-mod_ΔS (antibody, human IgG2, kappa, V domains shown)
VH: EVQLVESGGGLVKPGGSLRLSCAASGFTFSSYSMNWVRQAPGKGLEWVSSISSSSSYIYYADSVKGRFTISRDNAKNSLYLQMNSLRAEDTAVYYCARDGYSSGWYYYYYGMDVWGQGTTVTVSS
VL: DIVMTQTPLSLSVTPGQPASISCKSSQSLLLSDGKTYLNWYLQKPGQPPQLLIYEVSNRFSGVPDRFSGSGSGTDFTLKISRVEAEDVGVYSCMQSIQLMSSFGQGTKLEIKR
notes: Purified recombinant antibody; also called 6.77.1-mod_ΔAS
B6 returned an IC50 in assay [5] of 0.0485 µg/mL.

B7: 6.22.2 (antibody, V domains shown)
VH: QVQLVESGGGVVQPGRSLRLSCAASGHTFSSDGMHWVRQAPGKGLEWVAIIWYDGSNKYYADSVKGRFTISRDNSKNTLYLQMNSLRAEDTAVYYCARDPGYYYGMDVWGQGTTVTVSS
VL: EIVLTQSPDFQSVTPKEKVTITCRASQRIGSSLHWYQQKPDQSPKLLIKYASQSFSGVPSRFSGSGSGTNFTLTINGLEAEDAATYYCHQSGRLPLTFGGGTKVEIKR
In turn, B7 showed an IC50 in assay [5] of 0.018 µg/mL.

B8: 6.22.2-mod_V (antibody, human IgG2, kappa, V domains shown)
VH: QVQLVESGGGVVQPGRSLRLSCAASGFTFSSDGMHWVRQAPGKGLEWVAVIWYDGSNKYYADSVKGRFTISRDNSKNTLYLQMNSLRAEDTAVYYCARDPGYYYGMDVWGQGTTVTVSS
VL: EIVLTQSPDFQSVTPKEKVTITCRASQRIGSSLHWYQQKPDQSPKLLIKYASQSFSGVPSRFSGSGSGTDFTLTINSLEAEDAATYYCHQSGRLPLTFGGGTKVEIKR
notes: Purified recombinant antibody
B8 yielded an IC50 in assay [5] of 0.076 µg/mL.

B9: 6.67.1 (antibody, V domains shown)
VH: QVQLQESGPGLVKPSETLSLTCTVSGDSISSNYWSWIRQPAGKGLEWIGRIYTSGGTNSNPSLRGRVTILADTSKNQFSLKLSSVTAADTAVYYCARDRITIIRGLIPSFFDYWGQGTLVTVSS
VL: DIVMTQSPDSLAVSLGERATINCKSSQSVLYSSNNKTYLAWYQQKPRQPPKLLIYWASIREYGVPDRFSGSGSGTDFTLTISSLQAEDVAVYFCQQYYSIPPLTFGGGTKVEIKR
As for B9, the IC50 in assay [5] turned out to be 0.013 µg/mL.

B10: 6.67.1-mod_Y (antibody, V domains shown)
VH: QVQLQESGPGLVKPSETLSLTCTVSGDSISSNYWSWIRQPAGKGLEWIGRIYTSGGTNSNPSLRGRVTMSVDTSKNQFSLKLSSVTAADTAVYYCARDRITIIRGLIPSFFDYWGQGTLVTVSS
VL: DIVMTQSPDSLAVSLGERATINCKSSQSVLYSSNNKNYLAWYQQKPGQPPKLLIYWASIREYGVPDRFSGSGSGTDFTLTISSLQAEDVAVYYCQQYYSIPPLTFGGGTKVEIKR
B10 gave a half-maximal inhibitory concentration (IC50) in assay [5] of 0.063 µg/mL.

B11: 9.8.2-mod_ΔRGAYH,D (antibody, human IgG4, kappa, V domains shown)
VH: QVQLVESGGGVVQPGRSLRLSCAASGFTFSSYGMHWVRQAPGKGLEWVAVIWYDGSNEYYADSVKGRFTISRDNSKNTLYLQMNSLRAEDTAVYYCAFDYWGQGTLVTVSS
VL: DIQMTQSPSSLSASVGDRVTITCQASQDISNYLNWYQQKPGKAPKLLIYDASNLETGVPSRFSGSGSGTDFTFTISSLQPEDIATYSCQHSDNLITFGQGTRLEIKR
notes: Purified recombinant antibody; The heavy-chain constant region as printed is IgG4-like; also called 9.8.2_ΔRGAYH,D
Regarding B11, the concentration for half-maximal inhibition (IC50) in assay [5] came to 0.072 µg/mL.

B12: 6.34.2 (antibody, V domains shown)
VH: QVQLVESGGGVVQPGRSLRLSCAASGFTFSSYGMHWVRQAPGKGLEWVAVISNDGNNKYYADSVKGRFTISRDNSKNTLYLQMNSLSAEDTAVYYCARDSTAITYYYYGMDVWGQGTTVTVSS
VL: DIQMTQSPSSLSASVGDRVTITCRASQNISSYLNWFQQKPGKAPKLLIYAASGLKRGVPSRFSGSGSGTDFTLTIRTLQPDDFATYSCHQSYSLPFTFGPGTKVDIKR
For the molecule B12, the IC50 in assay [5] was 0.013 µg/mL.

B13: 6.34.2-mod_SSQ (antibody, human IgG2, kappa, V domains shown)
VH: QVQLVESGGGVVQPGRSLRLSCAASGFTFSSYGMHWVRQAPGKGLEWVAVISNDGNNKYYADSVKGRFTISRDNSKNTLYLQMNSLRAEDTAVYYCARDSTAITYYYYGMDVWGQGTTVTVSS
VL: DIQMTQSPSSLSASVGDRVTITCRASQSISSYLNWYQQKPGKAPKLLIYAASSLSQGVPSRFSGSGSGTDFTLTISSLQPEDFATYYCHQSYSLPFTFGPGTKVDIKR
notes: Purified recombinant antibody
In turn, B13 yielded an IC50 in assay [5] of 0.086 µg/mL.

(Values after patent publication US20090214558A1 (Pfizer, published 2009).)
